Experiments:
[1] = system: CHO-S cells; experiment: Western blot analysis of PH20 expression in media and cells after transient expression; assay type: cell-based, Chinese Hamster; details: media versus cells
Method: The mutant PH20-HZ24 plasmids generated in Example 1 were transiently […] into CHO—S cells (derived from Chinese Hamster Ovary CHO K1 cells) using GeneJuice® (Novagen) according to the manufacturer's instructions. In short, the CHO—S cells were grown in CD CHO medium supplemented with L-glutamine. Prior to transfection, the CHO—S cells were plated in 6-well plates, with approximately 5×10^5 cells per well, and grown overnight at 37° C. with 5% CO2. The medium was then removed and the CHO—S cells were washed 2 times with 1 mL serum-free medium. GeneJuice® was mixed with serum-free media followed by the addition of 2 μg mutant-HZ24 DNA. After incubating at room temperature for 5-15 minutes, the GeneJuice®/DNA mixture was added dropwise to an individual well containing the washed CHO—S cells. After 4 hours, the medium was replaced with 1 mL CD-CHO medium supplemented with L-glutamine and the cells were incubated for 72 hours at 37° C. with 5% CO2. Following expression, the media and cells were harvested separately.
The mutant PH20-HZ24 plasmids generated in Example 1 were transiently […] into CHO—S cells using GeneJuice® (Novagen) according to the manufacturer's instructions. […]
In this example, following transient expression, as described in Example 2 above, the media and cells were harvested separately and analyzed for PH20 expression and solublility by Western blot analysis. Solubility of the C-terminus truncation mutants was determined by examining whether the expressed protein was present in the growth media or in the cells. […] Cells expressing these mutants were treated with phosphoinositol-phospholipase C (PI-PLC), which cleaves the GPI-anchor allowing the release of soluble protein into the media, and the presence of PH20 in the resulting media and cells was determined by Western blot analysis.
Non-reduced samples were run on a 4-20% Tris-Glycine gel and transferred to PVDF membrane using iBlot (Invitrogen). For the Western blot, rabbit anti-PH20 IgG (0.5 μg/mL) was used as the primary antibody and HRP-conjugated goat anti-rabbit IgG (0.1 ng/mL, Cat#DC03L, EMD) was used as the secondary antibody. Evidence of expression is determined by a band at approximately 66 kDa, corresponding to recombinant human PH20 hyaluronidase.

[2] = Microtiter hyaluronidase activity assay with biotinylated-hyaluronic acid; assay type: biochemical; details: Table 6, 72 hour post transfection supernatant
Method: In Example 4, the hyaluronidase activity of truncated human PH20 hyaluronidase is determined using biotinylated hyaluronic acid. The free carboxyl groups on the glucuronic acid residues of hyaluronic acid are biotinylated, and the biotinylated hyaluronic acid substrate is covalently coupled to a microtiter plate. Following incubation with hyaluronidase, the residual biotinylated hyaluronic acid substrate is detected using an avidin-peroxidase reaction, and compared to that obtained following reaction with hyaluronidase standards of known activity. […] The sensitivity permits rapid measurement of hyaluronidase activity from cultured cells and biological samples with an inter-assay variation of less than 10%.
In this example, the human PH20 hyaluronidase carboxy-terminus deletion mutants were tested for their PH20 hyaluronidase activity using a microtiter assay with biotinylated-hyaluronic acid (biotinylated-HA or bHA). The human PH20 hyaluronidase carboxy-terminus deletion mutants were tested for hyaluronidase activity at both pH 7.4 and pH 5.5.
In short, a 4×BH 96-well plate was coated with biotinylated-HA (1.1 MDa). The 72 hour post transfection supernatant from cells transfected with human PH20 hyaluronidase carboxy-terminus deletion mutants was diluted in buffer at either pH 7.4 or pH 5.5 and added to individual wells of the plate and allowed to incubate at 37° C. for 90 minutes. The reaction was terminated by addition of 4M guanidine HCl. The wells were washed 4× with Phosphate Buffered Saline with Tween20 (PBST) to remove any digested biotinylated-HA followed by addition of streptavidin-HRP for 1 hour at room temperature. The wells were washed 4× with PBST and the plate was developed with TMB. The plate was read at 450 nm using an ELISA plate reader. Hyaluronidase activity (in Units/mL) was determined by interpolating the measured absorbance at 450 nm with a hyaluronidase reference standard curve. Full length mature human PH20 hyaluronidase and untransfected CHO cells were used as positive and negative controls.

| pH 5.5 Activity [2] | pH 7.4 Activity [2] | Molecule | Expressed in Media [1] |
| --- | --- | --- | --- |
| 2.2365 Units/ml | 2.3895 Units/ml | SPAM1-DAFL: C-terminally truncated human PH20, precursor 469 aa (SEQ ID NO:31), mature 434 aa (SEQ ID NO:83) (protein, listed as Homo sapiens, HuPH20 precursor 1-469; Mature HuPH20 36-469) chain 1: MGVLKFKHIFFRSFVKSSGVSQIVFTFLLIPCCLTLNFRAPPVIPNVPFLWAWNAPSEFCLGKFDEPLDMSLFSFIGSPRINATGQGVTIFYVDRLGYYPYIDSITGVTVNGGIPQKISLQDHLDKAKKDITFYMPVDNLGMAVIDWEEWRPTWARNWKPKDVYKNRSIELVQQQNVQLSLTEATEKAKQEFEKAGKDFLVETIKLGKLLRPNHLWGYYLFPDCYNHHYKKPGYNGSCFNVEIKRNDDLSWLWNESTALYPSIYLNTQQSPVAATLYVRNRVREAIRVSKIPDAKSPLPVFAYTRIVFTDQVLKFLSQDELVYTFGETVALGASGIVIWGTLSIMRSMKSCLLLDNYMETILNPYIINVTLAAKMCSQVLCQEQGVCIRKNWNSSDYLHLNPDNFAIQLEKGGKFTVRGKPTLEDLEQFSEKFYCSCYSTLSCKEKADVKDTDAVDVCIADGVCIDAFL chain 2: LNFRAPPVIPNVPFLWAWNAPSEFCLGKFDEPLDMSLFSFIGSPRINATGQGVTIFYVDRLGYYPYIDSITGVTVNGGIPQKISLQDHLDKAKKDITFYMPVDNLGMAVIDWEEWRPTWARNWKPKDVYKNRSIELVQQQNVQLSLTEATEKAKQEFEKAGKDFLVETIKLGKLLRPNHLWGYYLFPDCYNHHYKKPGYNGSCFNVEIKRNDDLSWLWNESTALYPSIYLNTQQSPVAATLYVRNRVREAIRVSKIPDAKSPLPVFAYTRIVFTDQVLKFLSQDELVYTFGETVALGASGIVIWGTLSIMRSMKSCLLLDNYMETILNPYIINVTLAAKMCSQVLCQEQGVCIRKNWNSSDYLHLNPDNFAIQLEKGGKFTVRGKPTLEDLEQFSEKFYCSCYSTLSCKEKADVKDTDAVDVCIADGVCIDAFL | YES |
| 0.6278 Units/ml | 0.5625 Units/ml | SPAM1-IDAF: C-terminally truncated human PH20, precursor 468 aa (SEQ ID NO:32), mature 433 aa (SEQ ID NO:84) (protein, listed as Homo sapiens, HuPH20 precursor 1-468; Mature HuPH20 36-468) chain 1: MGVLKFKHIFFRSFVKSSGVSQIVFTFLLIPCCLTLNFRAPPVIPNVPFLWAWNAPSEFCLGKFDEPLDMSLFSFIGSPRINATGQGVTIFYVDRLGYYPYIDSITGVTVNGGIPQKISLQDHLDKAKKDITFYMPVDNLGMAVIDWEEWRPTWARNWKPKDVYKNRSIELVQQQNVQLSLTEATEKAKQEFEKAGKDFLVETIKLGKLLRPNHLWGYYLFPDCYNHHYKKPGYNGSCFNVEIKRNDDLSWLWNESTALYPSIYLNTQQSPVAATLYVRNRVREAIRVSKIPDAKSPLPVFAYTRIVFTDQVLKFLSQDELVYTFGETVALGASGIVIWGTLSIMRSMKSCLLLDNYMETILNPYIINVTLAAKMCSQVLCQEQGVCIRKNWNSSDYLHLNPDNFAIQLEKGGKFTVRGKPTLEDLEQFSEKFYCSCYSTLSCKEKADVKDTDAVDVCIADGVCIDAF chain 2: LNFRAPPVIPNVPFLWAWNAPSEFCLGKFDEPLDMSLFSFIGSPRINATGQGVTIFYVDRLGYYPYIDSITGVTVNGGIPQKISLQDHLDKAKKDITFYMPVDNLGMAVIDWEEWRPTWARNWKPKDVYKNRSIELVQQQNVQLSLTEATEKAKQEFEKAGKDFLVETIKLGKLLRPNHLWGYYLFPDCYNHHYKKPGYNGSCFNVEIKRNDDLSWLWNESTALYPSIYLNTQQSPVAATLYVRNRVREAIRVSKIPDAKSPLPVFAYTRIVFTDQVLKFLSQDELVYTFGETVALGASGIVIWGTLSIMRSMKSCLLLDNYMETILNPYIINVTLAAKMCSQVLCQEQGVCIRKNWNSSDYLHLNPDNFAIQLEKGGKFTVRGKPTLEDLEQFSEKFYCSCYSTLSCKEKADVKDTDAVDVCIADGVCIDAF | YES |
| 0.4725 Units/ml | 0.5535 Units/ml | SPAM1-CIDA: C-terminally truncated human PH20, precursor 467 aa (SEQ ID NO:33), mature 432 aa (SEQ ID NO:85) (protein, listed as Homo sapiens, HuPH20 precursor 1-467; Mature HuPH20 36-467) chain 1: MGVLKFKHIFFRSFVKSSGVSQIVFTFLLIPCCLTLNFRAPPVIPNVPFLWAWNAPSEFCLGKFDEPLDMSLFSFIGSPRINATGQGVTIFYVDRLGYYPYIDSITGVTVNGGIPQKISLQDHLDKAKKDITFYMPVDNLGMAVIDWEEWRPTWARNWKPKDVYKNRSIELVQQQNVQLSLTEATEKAKQEFEKAGKDFLVETIKLGKLLRPNHLWGYYLFPDCYNHHYKKPGYNGSCFNVEIKRNDDLSWLWNESTALYPSIYLNTQQSPVAATLYVRNRVREAIRVSKIPDAKSPLPVFAYTRIVFTDQVLKFLSQDELVYTFGETVALGASGIVIWGTLSIMRSMKSCLLLDNYMETILNPYIINVTLAAKMCSQVLCQEQGVCIRKNWNSSDYLHLNPDNFAIQLEKGGKFTVRGKPTLEDLEQFSEKFYCSCYSTLSCKEKADVKDTDAVDVCIADGVCIDA chain 2: LNFRAPPVIPNVPFLWAWNAPSEFCLGKFDEPLDMSLFSFIGSPRINATGQGVTIFYVDRLGYYPYIDSITGVTVNGGIPQKISLQDHLDKAKKDITFYMPVDNLGMAVIDWEEWRPTWARNWKPKDVYKNRSIELVQQQNVQLSLTEATEKAKQEFEKAGKDFLVETIKLGKLLRPNHLWGYYLFPDCYNHHYKKPGYNGSCFNVEIKRNDDLSWLWNESTALYPSIYLNTQQSPVAATLYVRNRVREAIRVSKIPDAKSPLPVFAYTRIVFTDQVLKFLSQDELVYTFGETVALGASGIVIWGTLSIMRSMKSCLLLDNYMETILNPYIINVTLAAKMCSQVLCQEQGVCIRKNWNSSDYLHLNPDNFAIQLEKGGKFTVRGKPTLEDLEQFSEKFYCSCYSTLSCKEKADVKDTDAVDVCIADGVCIDA | YES |
| 0.2115 Units/ml | 0 Units/ml | SPAM1-VCID: C-terminally truncated human PH20, precursor 466 aa (SEQ ID NO:34), mature 431 aa (SEQ ID NO:86) (protein, listed as Homo sapiens, HuPH20 precursor 1-466; Mature HuPH20 36-466) chain 1: MGVLKFKHIFFRSFVKSSGVSQIVFTFLLIPCCLTLNFRAPPVIPNVPFLWAWNAPSEFCLGKFDEPLDMSLFSFIGSPRINATGQGVTIFYVDRLGYYPYIDSITGVTVNGGIPQKISLQDHLDKAKKDITFYMPVDNLGMAVIDWEEWRPTWARNWKPKDVYKNRSIELVQQQNVQLSLTEATEKAKQEFEKAGKDFLVETIKLGKLLRPNHLWGYYLFPDCYNHHYKKPGYNGSCFNVEIKRNDDLSWLWNESTALYPSIYLNTQQSPVAATLYVRNRVREAIRVSKIPDAKSPLPVFAYTRIVFTDQVLKFLSQDELVYTFGETVALGASGIVIWGTLSIMRSMKSCLLLDNYMETILNPYIINVTLAAKMCSQVLCQEQGVCIRKNWNSSDYLHLNPDNFAIQLEKGGKFTVRGKPTLEDLEQFSEKFYCSCYSTLSCKEKADVKDTDAVDVCIADGVCID chain 2: LNFRAPPVIPNVPFLWAWNAPSEFCLGKFDEPLDMSLFSFIGSPRINATGQGVTIFYVDRLGYYPYIDSITGVTVNGGIPQKISLQDHLDKAKKDITFYMPVDNLGMAVIDWEEWRPTWARNWKPKDVYKNRSIELVQQQNVQLSLTEATEKAKQEFEKAGKDFLVETIKLGKLLRPNHLWGYYLFPDCYNHHYKKPGYNGSCFNVEIKRNDDLSWLWNESTALYPSIYLNTQQSPVAATLYVRNRVREAIRVSKIPDAKSPLPVFAYTRIVFTDQVLKFLSQDELVYTFGETVALGASGIVIWGTLSIMRSMKSCLLLDNYMETILNPYIINVTLAAKMCSQVLCQEQGVCIRKNWNSSDYLHLNPDNFAIQLEKGGKFTVRGKPTLEDLEQFSEKFYCSCYSTLSCKEKADVKDTDAVDVCIADGVCID | YES |

From patent US9284543B2, “Neutral active soluble truncated PH20 polypeptides and uses thereof” (Halozyme, Inc., priority 2008, dated 2016)
